test system: Escherichia coli TOP10; test: shrunken log2 fold change of peptide-encoding DNA abundance (4.5 h post-induction vs induction); higher = less antimicrobial activity (less host growth inhibition); conditions: time post-induction: 4.5 h; library: site-saturation at positions 5, 18, 19, 20
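Also: peptides expressed intracellularly from a pBAD plasmid library in pooled LB shake-flask culture, induced with 0.3% L-arabinose, DNA abundance read by NGS, three biological replicates, DESeq2 with apeglm shrinkage.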

Row | Sequence | shrunken log2 fold change
1 | RRIRTRPPRLPRPRPRPRGSPRP | 0.177
2 | RRIRTRPPRLPRPRPRPRHFPRP | -0.085
3 | RRIRTRPPRLPRPRPRPRHLPRP | 0.318
4 | RRIRTRPPRLPRPRPRPRIIPRP | -0.215
5 | RRIRTRPPRLPRPRPRPRIQPRP | 0.214
6 | RRIRTRPPRLPRPRPRPRKAPRP | 0.326
7 | RRIRTRPPRLPRPRPRPRMNPRP | -0.133
8 | RRIRTRPPRLPRPRPRPRNWPRP | 0.325
9 | RRIRTRPPRLPRPRPRPRPRPRP | 0.81
10 | RRIRTRPPRLPRPRPRPRVQPRP | -0.2
11 | RRIRTRPPRLPRPRPRPRWDPRP | 0.0818
12 | RRIRTRPPRLPRPRPRPRYVPRP | -0.426
13 | RRIRTRPPRLPRPRPRPSAAPRP | 0.186
14 | RRIRTRPPRLPRPRPRPSADPRP | -0.0419
15 | RRIRTRPPRLPRPRPRPSCQPRP | -0.21
16 | RRIRTRPPRLPRPRPRPSDPPRP | -0.429
17 | RRIRTRPPRLPRPRPRPSEHPRP | -0.383
18 | RRIRTRPPRLPRPRPRPSEIPRP | -0.242
19 | RRIRTRPPRLPRPRPRPSESPRP | 0.122
20 | RRIRTRPPRLPRPRPRPSGCPRP | -0.375
21 | RRIRTRPPRLPRPRPRPSGLPRP | -0.573
22 | RRIRTRPPRLPRPRPRPSHNPRP | -0.681
23 | RRIRTRPPRLPRPRPRPSILPRP | -0.781
24 | RRIRTRPPRLPRPRPRPSKMPRP | -0.793
25 | RRIRTRPPRLPRPRPRPSLKPRP | -0.359

Row | Sequence | shrunken log2 fold change
26 | RRIRTRPPRLPRPRPRPSMGPRP | -0.22
27 | RRIRTRPPRLPRPRPRPSMTPRP | -0.401
28 | RRIRTRPPRLPRPRPRPSPKPRP | 2.46
29 | RRIRTRPPRLPRPRPRPSPQPRP | -0.133
30 | RRIRTRPPRLPRPRPRPSQWPRP | -0.168
31 | RRIRTRPPRLPRPRPRPSRFPRP | 0.244
32 | RRIRTRPPRLPRPRPRPSSIPRP | -0.233
33 | RRIRTRPPRLPRPRPRPSSMPRP | -0.239
34 | RRIRTRPPRLPRPRPRPSWLPRP | 0.11
35 | RRIRTRPPRLPRPRPRPSYGPRP | -0.259
36 | RRIRTRPPRLPRPRPRPTDLPRP | -0.0718
37 | RRIRTRPPRLPRPRPRPTDQPRP | -0.143
38 | RRIRTRPPRLPRPRPRPTENPRP | -0.293
39 | RRIRTRPPRLPRPRPRPTEVPRP | -0.199
40 | RRIRTRPPRLPRPRPRPTGIPRP | 0.00119
41 | RRIRTRPPRLPRPRPRPTHAPRP | 4.04
42 | RRIRTRPPRLPRPRPRPTICPRP | -0.401
43 | RRIRTRPPRLPRPRPRPTIWPRP | 0.03
44 | RRIRTRPPRLPRPRPRPTNMPRP | -0.409
45 | RRIRTRPPRLPRPRPRPTPCPRP | 0.124
46 | RRIRTRPPRLPRPRPRPTPEPRP | 0.08
47 | RRIRTRPPRLPRPRPRPTQDPRP | 0.837
48 | RRIRTRPPRLPRPRPRPTQFPRP | 0.0832
49 | RRIRTRPPRLPRPRPRPTRHPRP | 0.237
50 | RRIRTRPPRLPRPRPRPTSKPRP | -0.343

Row | Sequence | shrunken log2 fold change
51 | RRIRTRPPRLPRPRPRPTTFPRP | -0.012
52 | RRIRTRPPRLPRPRPRPTWKPRP | 0.0204
53 | RRIRTRPPRLPRPRPRPTWNPRP | -0.0206
54 | RRIRTRPPRLPRPRPRPVAQPRP | 0.26
55 | RRIRTRPPRLPRPRPRPVDQPRP | -0.123
56 | RRIRTRPPRLPRPRPRPVDSPRP | 0.0391
57 | RRIRTRPPRLPRPRPRPVDTPRP | 0.0439
58 | RRIRTRPPRLPRPRPRPVEMPRP | -0.162
59 | RRIRTRPPRLPRPRPRPVFKPRP | 0.0882
60 | RRIRTRPPRLPRPRPRPVGIPRP | -0.0568
61 | RRIRTRPPRLPRPRPRPVGNPRP | 0.0924
62 | RRIRTRPPRLPRPRPRPVHDPRP | -0.0747
63 | RRIRTRPPRLPRPRPRPVHNPRP | -0.159
64 | RRIRTRPPRLPRPRPRPVINPRP | -0.189
65 | RRIRTRPPRLPRPRPRPVKFPRP | -0.0819
66 | RRIRTRPPRLPRPRPRPVLCPRP | 0.0726
67 | RRIRTRPPRLPRPRPRPVNHPRP | -0.0862
68 | RRIRTRPPRLPRPRPRPVREPRP | 0.139
69 | RRIRTRPPRLPRPRPRPVRKPRP | 0.00119
70 | RRIRTRPPRLPRPRPRPVRLPRP | -0.0555
71 | RRIRTRPPRLPRPRPRPVRPPRP | 0.779
72 | RRIRTRPPRLPRPRPRPVTHPRP | -0.0683
73 | RRIRTRPPRLPRPRPRPVTRPRP | 0.229
74 | RRIRTRPPRLPRPRPRPVVIPRP | 1.29
75 | RRIRTRPPRLPRPRPRPVVLPRP | -0.149

Row | Sequence | shrunken log2 fold change
76 | RRIRTRPPRLPRPRPRPVWGPRP | 0.368
77 | RRIRTRPPRLPRPRPRPVWMPRP | -0.0336
78 | RRIRTRPPRLPRPRPRPVYQPRP | -0.0843
79 | RRIRTRPPRLPRPRPRPWACPRP | -0.151
80 | RRIRTRPPRLPRPRPRPWADPRP | 0.015
81 | RRIRTRPPRLPRPRPRPWAFPRP | -0.185
82 | RRIRTRPPRLPRPRPRPWAIPRP | -0.205
83 | RRIRTRPPRLPRPRPRPWEQPRP | 0.0248
84 | RRIRTRPPRLPRPRPRPWGCPRP | -0.151
85 | RRIRTRPPRLPRPRPRPWGGPRP | 0.439
86 | RRIRTRPPRLPRPRPRPWGMPRP | -0.126
87 | RRIRTRPPRLPRPRPRPWHKPRP | -0.168
88 | RRIRTRPPRLPRPRPRPWIGPRP | -0.233
89 | RRIRTRPPRLPRPRPRPWKCPRP | -0.0161
90 | RRIRTRPPRLPRPRPRPWKRPRP | 0.0299
91 | RRIRTRPPRLPRPRPRPWLAPRP | 0.216
92 | RRIRTRPPRLPRPRPRPWLKPRP | 0.18
93 | RRIRTRPPRLPRPRPRPWNLPRP | -0.031
94 | RRIRTRPPRLPRPRPRPWNTPRP | -0.0118
95 | RRIRTRPPRLPRPRPRPWRDPRP | 0.00299
96 | RRIRTRPPRLPRPRPRPWRGPRP | 0.123
97 | RRIRTRPPRLPRPRPRPWRLPRP | -0.127
98 | RRIRTRPPRLPRPRPRPWRSPRP | -0.0438
99 | RRIRTRPPRLPRPRPRPWSFPRP | -0.0893
100 | RRIRTRPPRLPRPRPRPWTSPRP | 0.0106

Row | Sequence | shrunken log2 fold change
101 | RRIRTRPPRLPRPRPRPWVQPRP | -0.0274
102 | RRIRTRPPRLPRPRPRPWVWPRP | 0.166
103 | RRIRTRPPRLPRPRPRPWWYPRP | -0.308
104 | RRIRTRPPRLPRPRPRPWYFPRP | -0.432
105 | RRIRTRPPRLPRPRPRPYCDPRP | -0.512
106 | RRIRTRPPRLPRPRPRPYCHPRP | -0.213
107 | RRIRTRPPRLPRPRPRPYCVPRP | -0.142
108 | RRIRTRPPRLPRPRPRPYDVPRP | -0.153
109 | RRIRTRPPRLPRPRPRPYEVPRP | -0.0168
110 | RRIRTRPPRLPRPRPRPYGHPRP | -0.587
111 | RRIRTRPPRLPRPRPRPYHIPRP | -1.06
112 | RRIRTRPPRLPRPRPRPYLDPRP | -0.381
113 | RRIRTRPPRLPRPRPRPYLFPRP | -0.71
114 | RRIRTRPPRLPRPRPRPYLIPRP | -0.183
115 | RRIRTRPPRLPRPRPRPYMGPRP | -1.93
116 | RRIRTRPPRLPRPRPRPYMIPRP | -0.478
117 | RRIRTRPPRLPRPRPRPYMKPRP | -0.0199
118 | RRIRTRPPRLPRPRPRPYMTPRP | -0.375
119 | RRIRTRPPRLPRPRPRPYNTPRP | -0.737
120 | RRIRTRPPRLPRPRPRPYPCPRP | -0.245
121 | RRIRTRPPRLPRPRPRPYPGPRP | -0.164
122 | RRIRTRPPRLPRPRPRPYQDPRP | -0.0173
123 | RRIRTRPPRLPRPRPRPYQQPRP | 0.0675
124 | RRIRTRPPRLPRPRPRPYRAPRP | -0.0709
125 | RRIRTRPPRLPRPRPRPYSPPRP | -0.226

Row | Sequence | shrunken log2 fold change
126 | RRIRTRPPRLPRPRPRPYSWPRP | -0.118
127 | RRIRTRPPRLPRPRPRPYTDPRP | -0.448
128 | RRIRTRPPRLPRPRPRPYTLPRP | -0.000759
129 | RRIRTRPPRLPRPRPRPYVLPRP | -0.321
130 | RRIRTRPPRLPRPRPRPYVTPRP | -0.203
131 | RRIRTRPPRLPRPRPRPYWDPRP | -0.0758
132 | RRIRTRPPRLPRPRPRPYWRPRP | -0.174
133 | RRIRVRPPRLPRPRPRPAAIPRP | -0.0826
134 | RRIRVRPPRLPRPRPRPACDPRP | 0.284
135 | RRIRVRPPRLPRPRPRPACEPRP | 0.165
136 | RRIRVRPPRLPRPRPRPACKPRP | -0.0847
137 | RRIRVRPPRLPRPRPRPACTPRP | -0.0478
138 | RRIRVRPPRLPRPRPRPADGPRP | 0.000767
139 | RRIRVRPPRLPRPRPRPADNPRP | -0.0365
140 | RRIRVRPPRLPRPRPRPAEIPRP | -0.0984
141 | RRIRVRPPRLPRPRPRPAELPRP | 0.175
142 | RRIRVRPPRLPRPRPRPAEYPRP | -0.124
143 | RRIRVRPPRLPRPRPRPAGFPRP | 0.148
144 | RRIRVRPPRLPRPRPRPAHDPRP | 0.113
145 | RRIRVRPPRLPRPRPRPAIYPRP | -0.294
146 | RRIRVRPPRLPRPRPRPAKTPRP | 0.0432
147 | RRIRVRPPRLPRPRPRPAMKPRP | -0.187
148 | RRIRVRPPRLPRPRPRPAMNPRP | -0.498
149 | RRIRVRPPRLPRPRPRPAPIPRP | 0.152
150 | RRIRVRPPRLPRPRPRPAPNPRP | 0.334

From the supplement of paper PMC9112550, “Optimization of the antimicrobial peptide Bac7 by deep mutational scanning” (BMC Biology, 2022)
